Reference: paper PMC11406361, “Several orphan solute carriers functionally identified as organic cation transporters: Substrates specificity compared with known cation transporters” (The Journal of Biological Chemistry, 2024)

Assays:
Assay in all cases: cells, lysate or membranes
C[N+](C)(C)CCO = settings: other: SLC35E1, HEK293, net uptake over empty vector cells; pH 7.4
Clc1cccc(Cl)c1N=C1NCCN1 = settings: other: SLC38A10, HEK293, net uptake over empty vector cells; pH 7.4
CC(N)Cc1ccccc1 = settings: pH 7.4
CN1CCC[C@H]1c1cccnc1 = settings: other: SLC38A10, HEK293, net uptake over empty vector cells; pH 7.4

Substance	Km (C[N+](C)(C)CCO)	Vmax (C[N+](C)(C)CCO)	Vmax/Km (C[N+](C)(C)CCO)	Km (Clc1cccc(Cl)c1N=C1NCCN1)	Vmax (Clc1cccc(Cl)c1N=C1NCCN1)	Vmax/Km (Clc1cccc(Cl)c1N=C1NCCN1)	Km (CC(N)Cc1ccccc1)	Km (CN1CCC[C@H]1c1cccnc1)
SLC35E1 (Homo sapiens)	91.6 (±39.8) μM	8.71e-05 µmol/min/mg	0.95 µL/min/mg					
SLC38A10 (Homo sapiens)				162 (±141) μM	0.000427 µmol/min/mg	2.64 µL/min/mg	120 (±44.9) μM	62.0 (±35.6) μM
